Results taken from the DeepSol protein solubility set.

Test: soluble on expression in E. coli; label from the status in PepcDB or PDB records

Row | Sequence | soluble on expression in E. coli
1 | MASNQIEGAVVGIRVNDGIAAAPVVLFTHEMPAVPERDFQSEQGEIERVKRAIGVVVQHLQEQAKQPKGEIFSAHSMMLSDPELWASVESRIQTGMIAEQAWIESLQTLADEFRQAESQYMREREADVHDIARQVMVEMTGVTPNAIDIQEPSILLARDLMPSDVAGLDKSKVLGICLSEGGKTSHSAILARAMGIPAMVKAQGCLDAVRAGQVVTIDGFRGHLWFSPSDAIQQELEAQQIEWQSTRQSALASAQQA | not soluble
2 | MAHHHHHHMDVSRRLAGENHDFRRSTQVPALCTKPQGGKGMRLNVLHEGAVPANDFHSAHLTPYEMDEIKGYSEVYYVGQNCDRKVQAPVEGGHNKGYDDERGDYLIRLRDHIAYRYEVLSTLGSGSFGQVVKAVDHCKNCTVALKIIRNRKRFTAQAKIEVQILSHLKKGDPSGIYGIVQMIDNFTFRSHVCITYELLGCNLYTYLKQRRFKPLPLDVVRKIGAGVLVSLSYMWRENIIHCDLKPENILLRSPNDTAVKVIDLGSSCFENARLFTYIQSRFYRAPEVLLGCPYSRCIDLWSYGCVLCELASGYPIFPGESEQEQMACIMEFLGTPPRDFILRSPRKHEFFEASANYSPKLVPNSKLKIRFPGTKNIAAFLGLPEGDPFVSFVKLFLEWVPDSRATPRRAMKHPWIADEVNELLSKQKRNTAATGEDDSESKFHKALPRLPKIGK | not soluble
3 | MAHHHHHHMKGDAEVVDIGSEVLSVTFSNSGRRLAVLTMRQEISVYETVVPTEPIIIKTFQTSFDAAGGWNKTVGPRSANYNARFNVIAFSPEGEKIVAGGDSKWIVMYHATQGYMLKKWPVTTNQDVQGAEEQYQWRQMTEAGHVDDIDVDDADIHLRRGKIMEMPGSRHRHFATGKRQTALTARTMDLAFSCTGTEFVAATTDGLLMFSTRVARPKFQPLQLSANITTQQVRDQLDRGEPVMALMGAMKLGDKMLGVECLRRMPRDAIPVAVSSVPSVLFPLLVQWVSTEVEESRGIEQALLWAQSLMLHSNECTGGFAQERSAVIPALKVLQRGLQQHRALTDLAKENYFSLRYIIDMTKMQKDILQPAATVE | not soluble
4 | MPLTKRAVSPVNLSRGTIPSTIHRDELQCTANGTIANLVRQLSSLSKHAENIFGEIYHDAMIINHKSNTLQQRIDRLHKKVEDLDSNSDQATLNEANMRKAFKSSMLVDQHILDRSTLPTALTEIYAKCDPPPDLDALNPYRDSEIPALSLYTNPSFFFDLWKKETLKEVAERPRRVKSPNDGSKSPKKRRKQPGQGPLGTTAYNDMQHRNRQISGSRINQQNEVFSFPEEYQAPQALGLQLNFKNQHPSNMVAPIGMTMHHHPQQNVHPSQQRGGAPAAARGSPNVKRPTEAPPPVNLDHLPPPDMSILSIDDDDDDLPPPPPPLLMNTSIVHQLPAEAPSTIQFVEPSAAPPTNIPPPPPPPPPMVISSAAASFAAPAPKPSADGEAAGTNSPVAPKQPDARSDLLAQIQSGIKLKKVQRAEAEAAENAALEANNVAAILKRRMDQVMGNDDSSSEEGADDDEWDD | not soluble
5 | MSLQAPMALVPVRTIYPGEAISPEQVKSVEVTNPNISAGYASDISEVEGMISKQTLLPGRTIPIAALREPSLVVRGTSVKLVFHIGNMTLMASGTPMSDGSLGEVVRVRNIDSGVMVSGTVMKDGTIQVMAKEGHHHHHH | soluble
6 | MKIIILHGLYMHGLVMQPLSQKLRKLGYETQVLSYNTVAIDESSLFDSIDHSLNPLTANVLVGHSLGGLMIKRYLANRKPTTSLISHVVAIGSPLKGASIVGRIQDLGLGAILGNSPHHGLNKHHDAWAFPQKLGSIAGTVPIGARPLLIRNDNTMSDGTVTVEETRLDGMQDHIEVKQTHTSLIYNTFVPQQIDHFIRTDYFCR | not soluble
7 | MDNSSQSKPSSSSSSHSPSPAAITPTQRTTRDSGLCSTIDIPEIQAQCIDNLNSHYLGKGTYGLVEKTRYRKTRQDDFRPAAIKYSSQLHMATLIREAKVMWDLRNHPNIIKIYGLYKSPRNGQGVVMEYMDCGSMADLLYDRTHINYTIDHVASWMFQLSSAVDFFHSNSQVHRDLKLQNMLLSDRYRTMKLCDFGTFTSMHQSMTSNRGTPITMAPEVFRCEQYNMKSDIYSIGIIMWQIIARNHPYRRDLSVPGLLYNVATANLRPQELECNPILSEFYKKCWNDNADIRPTSSECVEYFTLLKDEYPNGSVPLSDSSTNGPAETPPPHAHRPTMLGTSSGSGIGSNNRTPTASKLLNPQQPGQGHRRNRSETFVVQPDLPYPTVPGEAGASRIPKSQSEAKNFRDRAKSEQRQPHRDARPPPPFEHRRDSNDEEKHAVFMNICSNEETRPIDPDTRDEKSLEIFHQHCDNNKQYADAWVIKKEVMRAKHELIAQWPQHDHTVELLERKYYLEQEIARYRDIQDDNYFSTERM | not soluble
8 | MAHHHHHHMNVRKGILNYLTLHSTIVRRNHHRSYHKECRQQGSPHGMEKNSKMKNVRPNYFVCIPLSGNKALVEEFLKVQNHVASKFEMLKECAIERNKFHISLLILHVKKSQMESSKEAFHEAMAEIKKLNHQAISFDTLETFRNDVLYAGLQEGSRKYVMNVIALLRDSFAKRDIHIFGNRKGREEARGKKRASGASDKSAANPIDKSAANPSDKSAAPPGTHERDDKEQITPHVTIMKNSYLRKIYANRKPQIFADYYADFNLSKLKNERVVPNKIQFLEMDTDSATSYYRIIAECGLP | not soluble
9 | MSLTRICIVGAGAVGGYLGARLALAGEAVNVLARGATLQALQTAGLRLTEDGATHTLPVRATHDAVALGEQDVVIVAVKAPALESVAAAIAPLIGPGTCVVVAMNGVPWWFFDRPGPLQGQRLQAVDPHGRIAQAIPTRHVLGCVVHLTSATASPGHIRHGNGRRLILGEPAGGASPRLASIAALFGRAGLQAECSEAIQRDIWFKLWGNMTMNPVSVLTGATCDRILDDPLVSAFCLAVMAEAKAIGARIGCPIEQSGEARSAVTRQLGAFKTSMLQDAEAGRGPLEIDALVASVREIGRHVGVPTPQIDTLLGLVRLHAQTRGLYEGHHHHHH | soluble
10 | MIEISTSSTTTTLLVAGDLDLAEREQFPEVTARVVGLRRQLLVIDMCRVTFMDSTGAAFLISLADAGRRRGGATVLRGAADRDLFVLEICGALELFRIDADHHCELGAELPSAPEGAPAPA | not soluble
11 | MERAHRIDLKLLRYFLAVAEELHFGRAAARLNMSQPPLSIHIKELEQQLGTLLFIRHSRSVALTHAGKVLMEESRRLLASANQALARVEQIGRGEAGRIELGVVGTALWGRMRPAMRHFLKANPNVEVLFREKSPGMQMALLERRELDAGIWRMAIEPAVGFTSIRLHESAFMVAVPEDHDLASRDSVPLAALRNEYFVTLPSVHSDWGFLQRVCQQAGFSPMIIREVVEPQTVLAMISMGIGITLMADGYAQMSWPGVVFRPLEERIPADLYIVYDQQQATPALEKLVAALTV | not soluble
12 | MSKYGCPTSDTDPNSVTMITKRGPVNKTLKSAAQLNAAQRAGVDISTEKKTMSGGNRQHSANKNTLRLDEETEELHHQKVALSLGKVMQQARATKGWTQKDLSTQINEKPQVVGEYESGKAVPNQQIMAKMERALGVKLRGKDIGMPFSTKPPAKK | not soluble
13 | MGSDKIHHHHHHMTALTPAAFHSDRNRHDAHVARIREVRPGLRIHSDDATDEFDAVMSGQCSPGLHLVLLLEGALDVSYGSRRVVLTTDGRRTGRADRDAVRPAVRMQSFLLNAVEPDTFRRRLSKGGYARRLSLAMSGEWLGHLQAASRGVLPEQLGTMLSAHLAIRFWQPTPRATALAEQIVRPPAYQPMLQAIYLESRVLELLAEAFTPLETDAAQAADASLGSRDYRRMAELRAFLASDAAQALSIDDIARHAGMSANAMQRQFRAAYGTTVFDFVREHHLQRARLALERDAVSVKQAAALAGYTSAANFATAYKRRFGVTPTLARRSDKR | not soluble
14 | MRKSDREAFLSSVLGNEQPPAHLARTVIEEKLRNAIIDGSLPSGTALRQQELATLFGVSRMPVREALRQLEAQSLLRVETHKGAVVAPLITEDAVDAYALRILLESEALRLSIPLLDADDLAAAASYIEQLEVETDFGQIGRLNRMFHLSLYAKTHNKRLMRLVEEGLNEEERFLRFNLSSMGLGKLSQDDHWQLLRLAEQKAVEPCVEALQYHLNRGVQAVTQYLQSQKAGNVKPARTKKNTPA | soluble
